These results are taken from paper PMC7093204 (Nature, 2020).

To fix the notation:
B1: Sfh1 (natural protein)
chain: MSHQNQLIPQAYISNFHNRLTNEDDGIPIFTMAQQTRQHKRAKVVNYAEYDNDLFDEFNMNGSNFNNADTHYKDNAVSHENTPALTNGVTMDGSEYNVLENMNGADSIISNNKYDAGSNMVVESLSGLNSNNNASNGPSNKAQAQDIGNAVLPDLQDQHHNPFNILRYPKIRDTFINGKVVSPYRLNTDQETKANANSGEAIMIPITLDIEHMGHTIKDQFLWNYNDDSISPEEFASIYCKDLDMTSATLQTQIANIIKEQLKDLENIAATEIMSDLHVIINLTCNLQDRFFEDNFQWNLNDKSLTPERFATSIVQDLGLTREFIPLISQSLHETILKIKKDWVDGHLIQDHVPNDAAFGYLSGIRLDIDELGSNWCPRVEILTKEEIQKREIEKERNLRRLKRETDRLSRRGRRRLDDLETTMRM
B2: Rsc6 (natural protein)
chain: MVTQTNPVPVTYPTDAYIPTYLPDDKVSNLADLKKLIEMDSRLDLYLTRRRLDTSINLPTNTKTKDHPPNKEMLRIYVYNTTESSPRSDSGTPADSGKTTWTLRIEGKLLHESANGKHPFSEFLEGVAVDFKRLKPLGMGKKRKRDSSLSLPLNLQQPEYNDQDSTMGDNDNGEDEDSAEAESREEIVDALEWNYDENNVVEFDGIDIKRQGKDNLRCSITIQLRGVDGGKVQYSPNLATLIGMQTGSVNDAVYSIYKYILINNLFVTEQTEAQDGSNDAEDSSNENNNKNGAGDDDGVEGSTPKDKPELGEVKLDSLLQKVLDTNAAHLPLMNVVQTVNKLVSPLPPIILDYTIDLSKDTTYGATTLDVDVSHILHQPQPQPNLQKEEETDAEDTAKLREITKLALQLNSSAQKYQFFHELSLHPRETLTHYLWSSKQNELVLQGDQYFNEDAARTSDIYSNNNNDRSLMGNISLLYSQGRL
B3: Rsc8 (natural protein)
chain: MSDTEKDKDVPMVDSHEATEEPPTTSTNTPSFPHLAQEQAKEESATLGAEVAHKKINYEQEAQKLEEKALRFLAKQTHPVIIPSFASWFDISKIHEIEKRSNPDFFNDSSRFKTPKAYKDTRNFIINTYRLSPYEYLTITAVRRNVAMDVASIVKIHAFLEKWGLINYQIDPRTKPSLIGPSFTGHFQVVLDTPQGLKPFLPENVIKQEVEGGDGAEPQVKKEFPVNLTIKKNVYDSAQDFNALQDESRNSRQIHKVYICHTCGNESINVRYHNLRARDTNLCSRCFQEGHFGANFQSSDFIRLENNGNSVKKNWSDQEMLLLLEGIEMYEDQWEKIADHVGGHKRVEDCIEKFLSLPIEDNYIREVVGSTLNGKGGDSRDGSVSGSKLMECVNDAVQTLLQGDDKLGKVSDKSREISEKYIEESQAIIQELVKLTMEKLESKFTKLCDLETQLEMEKLKYVKESEKMLNDRLSLSKQILDLNKSLEELNVSKKLVLISEQVDSGIQLVEKDQEGDDEDGNTATGHGVKRVGKEGEEVGEGDSIAKLQPQVYKPWSL

The data set “Rsc8” concerns the target B3. Kind of data set: cryo-EM structure.
The data set “cryo-EM structure” deals with the molecule itself. Kind of data set: cryo-EM structure.

For B1, the binding result in the data set with Rsc8 is on record as “binds”. The same measure, in the same setting: under B2 stands “binds”. Regarding B3, the binding result in the data set “cryo-EM structure” is recorded as “binds”.
